The results in this text go back to publication PMC5854672, “Solution structure of extracellular loop of human β4 subunit of BK channel and its biological implication on ChTX sensitivity” (Scientific Reports, 2018).

For assay [1], the target named is T1, mSlo1/β4(N123A) channel (mouse | human, UniProt Q08460 1-1209; Q86W47 1-210, N123A). The assay is described as follows: cell-based or functional assay.
Assay [2] has as its target T2, mSlo1/β4(N123K) channel (mouse | human, UniProt Q08460 1-1209; Q86W47 1-210, N123K). The assay is described as follows: cell-based or functional assay.
The target of assay [3] is T3, mSlo1/β4(N123R) channel (mouse | human, UniProt Q08460 1-1209; Q86W47 1-210, N123R). The assay is described as follows: cell-based or functional assay.
Assay [4] addresses T4, mSlo1/β4(N123E) channel (mouse | human, UniProt Q08460 1-1209; Q86W47 1-210, N123E). Description: cell-based or functional assay.
Assay [5] addresses T5, mSlo1/β4(N123D) channel (mouse | human, UniProt Q08460 1-1209; Q86W47 1-210, N123D). The assay is described as follows: cell-based or functional assay.
Assay [6] deals with T6, mSlo1/β4 channel (mouse | human, UniProt Q08460 1-1209; Q86W47 1-210). The assay is described as follows: cell-based or functional assay.
Assay [7] concerns the target T7, mSlo1/β4(H101Y) channel (mouse | human, UniProt Q08460 1-1209; Q86W47 1-210, H101Y).
T7 construct: mSlo1, BK channel α subunit (KCNMA1) of mouse, full-length cDNA, GenBank HQ221747.1; human BK channel β4 subunit (KCNMB4), full-length cDNA, GenBank AF207992.1; source: HEK293, transiently co-transfected (pcDNA3.1(+)), in excised membrane patches; copies: 4 + 4
Description: patch-clamp electrophysiology (time course of current block); outside-out patches of transfected HEK293 cells perfused with 1 μM ChTX; steps to +100 mV, intracellular 10 μM Ca2+; τon and τoff fitted to a first order bimolecular reaction scheme; KD = [ChTX]/((τoff/τon) − 1). The settings on record: one partner purified. A general note: In patch-clamp work, channel activity is measured electrically.

Assay [8] deals with T1, mSlo1/β4(N123A) channel. The assay is described as above. The conditions noted are these: one partner purified.
Assay [9] concerns the target T2, mSlo1/β4(N123K) channel. Described as above. The settings on record: one partner purified.
Assay [10] addresses T3, mSlo1/β4(N123R) channel. Described as above. The conditions noted are these: one partner purified.
The target of assay [11] is T4, mSlo1/β4(N123E) channel. Described as above. The settings on record: one partner purified.
For assay [12], the target named is T5, mSlo1/β4(N123D) channel. Described as above. The settings on record: one partner purified.
In assay [13] the target is T8, mSlo1/β4(N123F) channel (mouse | human, UniProt Q08460 1-1209; Q86W47 1-210, N123F).
T8 construct: mSlo1, BK channel α subunit (KCNMA1) of mouse, full-length cDNA, GenBank HQ221747.1; human BK channel β4 subunit (KCNMB4), full-length cDNA, GenBank AF207992.1; source: HEK293, transiently co-transfected (pcDNA3.1(+)), in excised membrane patches; copies: 4 + 4
Described as above. The settings on record: one partner purified.

Assay [14] has as its target T9, mSlo1/β4(N123V) channel (mouse | human, UniProt Q08460 1-1209; Q86W47 1-210, N123V).
T9 construct: mSlo1, BK channel α subunit (KCNMA1) of mouse, full-length cDNA, GenBank HQ221747.1; human BK channel β4 subunit (KCNMB4), full-length cDNA, GenBank AF207992.1; source: HEK293, transiently co-transfected (pcDNA3.1(+)), in excised membrane patches; copies: 4 + 4
The description is as above. The conditions noted are these: one partner purified.

The target of assay [15] is T10, mSlo1/β4(N123Y) channel (mouse | human, UniProt Q08460 1-1209; Q86W47 1-210, N123Y).
T10 construct: mSlo1, BK channel α subunit (KCNMA1) of mouse, full-length cDNA, GenBank HQ221747.1; human BK channel β4 subunit (KCNMB4), full-length cDNA, GenBank AF207992.1; source: HEK293, transiently co-transfected (pcDNA3.1(+)), in excised membrane patches; copies: 4 + 4
The assay is described as above. The conditions noted are these: one partner purified.

Assay [16] deals with T11, mSlo1/β4(N123I) channel (mouse | human, UniProt Q08460 1-1209; Q86W47 1-210, N123I).
T11 construct: mSlo1, BK channel α subunit (KCNMA1) of mouse, full-length cDNA, GenBank HQ221747.1; human BK channel β4 subunit (KCNMB4), full-length cDNA, GenBank AF207992.1; source: HEK293, transiently co-transfected (pcDNA3.1(+)), in excised membrane patches; copies: 4 + 4
The description is as above. The settings on record: one partner purified.

Assay [17] deals with T12, mSlo1/β4(N123L) channel (mouse | human, UniProt Q08460 1-1209; Q86W47 1-210, N123L).
T12 construct: mSlo1, BK channel α subunit (KCNMA1) of mouse, full-length cDNA, GenBank HQ221747.1; human BK channel β4 subunit (KCNMB4), full-length cDNA, GenBank AF207992.1; source: HEK293, transiently co-transfected (pcDNA3.1(+)), in excised membrane patches; copies: 4 + 4
Described as above. The settings on record: one partner purified.

In assay [18] the target is T13, mSlo1 channel (BKα subunit of mouse, alone) (mouse, UniProt Q08460 1-1209).
T13 construct: mSlo1, BK channel α subunit (KCNMA1) of mouse, full-length cDNA, GenBank HQ221747.1; tetrameric Slo1; also called mSlo1 alone channel; source: HEK293, transiently transfected (pcDNA3.1(+)), in excised membrane patches
The assay is described as above. The settings on record: one partner purified.

The target of assay [19] is T6, mSlo1/β4 channel. The assay is described as above. The conditions noted are these: one partner purified.
For assay [20], the target named is mSlo1 channel (BKα subunit of mouse, alone) (mouse) (UniProt Q08460).
Chain of mSlo1 channel (BKα subunit of mouse, alone) (mouse) (Q08460 whole entry): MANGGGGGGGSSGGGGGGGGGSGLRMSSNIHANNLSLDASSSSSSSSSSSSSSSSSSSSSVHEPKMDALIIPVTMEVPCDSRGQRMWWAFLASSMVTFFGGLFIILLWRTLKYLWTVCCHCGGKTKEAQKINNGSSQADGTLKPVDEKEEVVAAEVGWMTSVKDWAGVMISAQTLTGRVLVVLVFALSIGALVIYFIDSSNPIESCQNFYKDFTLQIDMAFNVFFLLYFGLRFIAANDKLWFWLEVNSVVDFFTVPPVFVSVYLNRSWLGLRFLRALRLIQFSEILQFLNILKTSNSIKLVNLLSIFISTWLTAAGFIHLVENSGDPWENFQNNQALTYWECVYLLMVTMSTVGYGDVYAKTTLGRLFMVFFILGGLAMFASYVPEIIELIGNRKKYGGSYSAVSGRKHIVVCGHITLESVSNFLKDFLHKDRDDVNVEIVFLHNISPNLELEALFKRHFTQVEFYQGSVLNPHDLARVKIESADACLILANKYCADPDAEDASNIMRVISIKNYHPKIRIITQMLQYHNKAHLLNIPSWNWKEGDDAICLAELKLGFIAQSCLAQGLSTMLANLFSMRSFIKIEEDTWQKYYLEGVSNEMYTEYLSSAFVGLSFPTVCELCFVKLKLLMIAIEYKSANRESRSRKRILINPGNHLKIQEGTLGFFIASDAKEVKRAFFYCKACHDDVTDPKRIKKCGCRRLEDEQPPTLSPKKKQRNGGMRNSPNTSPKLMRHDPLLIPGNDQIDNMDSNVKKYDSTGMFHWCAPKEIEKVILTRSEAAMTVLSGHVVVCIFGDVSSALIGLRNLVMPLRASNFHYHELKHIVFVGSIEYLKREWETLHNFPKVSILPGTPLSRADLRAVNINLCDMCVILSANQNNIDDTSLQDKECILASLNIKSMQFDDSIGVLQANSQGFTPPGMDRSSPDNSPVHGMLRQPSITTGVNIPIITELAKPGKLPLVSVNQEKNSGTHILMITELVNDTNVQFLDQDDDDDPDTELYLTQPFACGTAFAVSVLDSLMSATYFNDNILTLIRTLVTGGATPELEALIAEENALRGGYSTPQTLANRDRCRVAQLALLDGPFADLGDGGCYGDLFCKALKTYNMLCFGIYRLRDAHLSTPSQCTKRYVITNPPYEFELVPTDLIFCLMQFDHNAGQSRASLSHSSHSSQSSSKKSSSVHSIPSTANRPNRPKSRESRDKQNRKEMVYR

T5 sequence (Q08460 whole entry, stated change not applied, one chain of several): as the sequence (Q08460 whole entry) above
T13 sequence (Q08460 whole entry): as above
T4 sequence (Q08460 whole entry, stated change not applied, one chain of several): as the sequence (Q08460 whole entry) above
T6 sequence (Q08460 whole entry, one chain of several): as the sequence (Q08460 whole entry) above

B1: Charybdotoxin (peptide)
chain: QFTNVSCTTSKECWSVCQRLHNTSRGKCMNKKCRCYS
notes: charybdotoxin (ChTX), scorpion toxin; also called ChTX; source: bought: Sigma-Aldrich (Art. No. C7802)
With B1, the “inhibition of channel currents by 1 μM ChTX (outside-out patches, HEK293)” value in assay [1] is about 90%; in assay [2] it was 89.1%; in [3], 36.4%; in assay [4], 96%; in assay [5], 46.9%; in [6], 22.2%. Moreover, the Kd stood at 325 nM in assay [7]; 96.8 nM in [8]; 44.3 nM in [9]; 329 nM in assay [10]; 80.8 nM in assay [11]; 72.6 nM in assay [12]. The Kd in assay [13] worked out at 47.1 nM; in assay [14], 61.8 nM; in assay [15], 291 nM; in [16], 119 nM; in assay [17], 41.9 nM; in assay [18] it was 193 nM. Moreover, the τoff in assay [7] was determined as 32.6 s; in assay [8], 816 s; in assay [9] it was 314 s; in assay [10] it was 85.3 s; in assay [11], 138 s; in assay [12], 624 s. Besides, the τoff turned out to be 670 s in [13]; 53.3 s in assay [14]; 26.2 s in assay [15]; 38.5 s in assay [16]; 171 s in assay [17]; 21.6 s in assay [18]. Moreover, the “τon (block at 1 μM ChTX)” value in [7] amounted to 8 s; in assay [8] it was 72 s; in assay [9], 13.3 s; in assay [10] it was 21.1 s; in assay [11], 10.3 s; in assay [12], 42.2 s. Also, the “τon (block at 1 μM ChTX)” value in [13] stood at 30.1 s; in assay [14], 3.1 s; in [15], 5.9 s; in assay [16] it was 4.1 s; in [17], 6.9 s; in assay [18], 3.5 s. In addition, in assay [19], the “τon (block at 1 μM ChTX)” value is 60.9 s.

B2: human β4 subunit of BK channel, full length (natural protein)
chain: MAKLRVAYEYTEAEDKSIRLGLFLIISGVVSLFIFGFCWLSPALQDLQATEANCTVLSVQQIGEVFECTFTCGADCRGTSQYPCVQVYVNNSESNSRALLHSDEHQLLTNPKCSYIPPCKRENQKNLESVMNWQQYWKDEIGSQPFTCYFNQHQRPDDVLLHRTHDEIVLLHCFLWPLVTFVVGVLIVVLTICAKSLAVKAEAMKKRKFS
On to B2, for which the thermodynamic double-mutant cycle on V1/2 of G-V curves (inside-out patches, 10 μM Ca2+): mSlo1(E264A) against β4(N123A), ΔΔV in assay [20] was -42.4 mV.

As a reminder, the Kd is the free concentration of one partner at which half of the binding sites on the other are occupied at equilibrium, for simple one-to-one binding. Low values mean higher affinity, high ones lower affinity.
